Assay results published in patent publication WO2018178074A1 (dated 2018).

Key:
human FAP on cells = biological target: T1, human FAP on cells (human, UniProt Q12884 1-760); test: flow cytometry on NIH/3T3-huFAP clone 39 cells
T1 construct: Natural FAP of the melanoma line WM266-4, or human FAP from vector pETR4921 in NIH/3T3 cells; also called huFAP on WM266-4 cells; human FAP on NIH/3T3-huFAP clone 39 cells

human 4-1BB on cells = biological target: T2, human 4-1BB on cells (human, UniProt Q07011 24-255); test: flow cytometry on activated human PBMC (legend of Figure 14)
T2 construct: also called human 4-1BB on NF-kB-luciferase human-4-1BB HeLa clone 26 cells

[1] = biological target: T3, human FAP (soluble, second analyte in SPR) (human, UniProt Q12884 26-760); test: SPR Biacore T200, biotinylated human 4-1BB Fc(kih) on SA chip, construct 200 nM, then human FAP 500 nM
T3 construct: also called human FAP protein

T2 sequence (Q07011 24-255 limits assumed): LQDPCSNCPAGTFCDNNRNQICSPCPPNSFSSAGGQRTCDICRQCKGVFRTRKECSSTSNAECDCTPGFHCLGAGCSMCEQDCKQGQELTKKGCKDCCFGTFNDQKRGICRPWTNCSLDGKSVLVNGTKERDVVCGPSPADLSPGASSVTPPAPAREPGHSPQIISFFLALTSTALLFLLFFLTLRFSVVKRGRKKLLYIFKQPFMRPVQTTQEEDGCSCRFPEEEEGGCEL

| binding result (human FAP on cells) | binding result (human 4-1BB on cells) | binding result [1] | Binder |
| --- | --- | --- | --- |
| no binding |  |  | 25G7 huIgG1 P329G LALA (antibody, V domains shown, Human IgG1 with Pro329Gly, Leu234Ala, Leu235Ala; also called 25G7 hulgGI P329G LALA; parental huIgG1 P329G LALA 25G7) VH: not shown VL: SSELTQDPAVSVALGQTVRITCQGDSLRSYYASWYQQKPGQAPVLVIYGKNNRPSGIPDRFSGSSSGNTASLTITGAQAEDEADYYCNSLDRRGMWVFGGGTKLTVLG |
| no binding |  |  | 12B3 huIgG1 P329G LALA (antibody, V domains shown, Human IgG1 with Pro329Gly, Leu234Ala, Leu235Ala; also called 12B3 hulgGI P329G LALA; parental huIgG1 P329G LALA 12B3) VH: QVQLVQSGAEVKKPGSSVKVSCKASGGTFSSYAISWVRQAPGQGLEWMGGIIPIFGTANYAQKFQGRVTITADKSTSTAYMELSSLRSEDTAVYYCARSEFRFYADFDYWGQGTTVTVSS VL: not shown |
| binds | binds | binds | 25G7 x FAP 3+3 (bispecific antibody, Trimer of three CMP chains, each paired with an anti-4-1BB light chain; no Fc; also called 3+3 25G7/28H1) not shown light: SSELTQDPAVSVALGQTVRITCQGDSLRSYYASWYQQKPGQAPVLVIYGKNNRPSGIPDRFSGSSSGNTASLTITGAQAEDEADYYCNSLDRRGMWVFGGGTKLTVRTVAAPSVFIFPPSDEQLKSGTASVVCLLNNFYPREAKVQWKVDNALQSGNSQESVTEQDSKDSTYSLSSTLTLSKADYEKHKVYACEVTHQGLSSPVTKSFNRGEC |
